Measured values: US20060253917A1 (published 2006)

Tests used:
OsFDRMADS8 aa 69-233 = target: T1, OsFDRMADS8 aa 69-233 (Oryza sativa, UniProt A2Z9Q7 69-233); test: Y2H; input trait library
T1 construct: prey, AD fusion; also called PN20698
T1 sequence: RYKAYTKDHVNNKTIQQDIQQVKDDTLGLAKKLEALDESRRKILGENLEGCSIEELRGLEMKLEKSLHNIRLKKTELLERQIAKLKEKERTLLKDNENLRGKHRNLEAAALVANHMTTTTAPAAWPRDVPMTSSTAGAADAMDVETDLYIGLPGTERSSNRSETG
Summary of the method: (§1)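 Using an automated, high-throughput yeast two-hybrid assay provided by Myriad Genetics Inc. (Salt Lake City, Utah), protein-protein interactions were detected. Against either the input trait or the output trait rice prey library, a bait clone encoding a defined amino-acid fragment of a rice protein was screened. The encoding sequences of the prey clones that were retrieved were then compared against databases by BLAST to identify the interacting proteins.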

OsMADS1 aa 95-257 = target: T2, OsMADS1 aa 95-257 (Oryza sativa, UniProt A2XDY1 95-257); test: Y2H; input trait library
T2 construct: prey, AD fusion; also called PN19788
T2 sequence: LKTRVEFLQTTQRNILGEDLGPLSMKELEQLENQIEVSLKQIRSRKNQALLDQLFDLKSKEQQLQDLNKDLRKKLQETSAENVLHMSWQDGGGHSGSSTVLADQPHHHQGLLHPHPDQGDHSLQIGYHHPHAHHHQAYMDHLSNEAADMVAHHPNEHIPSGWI
Summary of the method: as §1

OsFDRMADS8 aa 94-230 = target: T3, OsFDRMADS8 aa 94-230 (Oryza sativa, UniProt A2Z9Q7 94-230); test: Y2H; output trait library
T3 construct: prey, AD fusion; also called PN20698
T3 sequence: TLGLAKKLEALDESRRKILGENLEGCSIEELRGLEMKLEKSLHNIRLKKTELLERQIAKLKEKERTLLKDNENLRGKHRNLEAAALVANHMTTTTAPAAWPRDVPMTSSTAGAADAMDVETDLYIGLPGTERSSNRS
Summary of the method: as §1

OsFDRMADS6 aa 100-246 = target: T4, OsFDRMADS6 aa 100-246 (Oryza sativa, UniProt P0C5B1 100-246); test: Y2H; output trait library
T4 construct: prey, AD fusion; also called PN19766
T4 sequence: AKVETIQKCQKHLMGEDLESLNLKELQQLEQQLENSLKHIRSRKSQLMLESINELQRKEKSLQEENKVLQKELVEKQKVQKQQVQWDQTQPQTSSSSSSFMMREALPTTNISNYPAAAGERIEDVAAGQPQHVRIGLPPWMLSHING
Summary of the method: as §1

OsMADS8 aa 127-248 = target: T5, OsMADS8 aa 127-248 (Oryza sativa, UniProt Q9SAR1 127-248); test: Y2H; output trait library
T5 construct: prey, AD fusion; also called PN20778
T5 sequence: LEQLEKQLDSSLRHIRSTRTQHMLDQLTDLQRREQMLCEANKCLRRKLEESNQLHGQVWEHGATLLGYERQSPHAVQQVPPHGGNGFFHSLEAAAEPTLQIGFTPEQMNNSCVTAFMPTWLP
Summary of the method: as §1

OsS49462 aa 1-100 = target: T6, OsS49462 aa 1-100 (Oryza sativa, UniProt Q01J96 179-278); test: Y2H; input trait library
T6 construct: bait, Gal4 DBD fusion; also called PN20325; O. sativa Cyclin OsS49462, Fragment
T6 sequence: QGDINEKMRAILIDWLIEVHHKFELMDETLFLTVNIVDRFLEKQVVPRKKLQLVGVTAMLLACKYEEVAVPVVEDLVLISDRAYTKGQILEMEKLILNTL
Summary of the method: as §1

Measured: binding result

B1: OsRAP1B aa 100-247 (other)
chain: AKVETIQKCQKHLMGEDLESLNLKELQQLEQQLENSLKHIRSRKSQLMLESINELQRKEKSLQEENKVLQKELVEKQKVQKQQLQWDQTQPQTISSSSSFMMREALPTTNISNYPAAAGERIEDVPAGQPQHVRIGLPPWMLSHING
notes: bait, Gal4 DBD fusion; also called PN20232
binds: OsFDRMADS8 aa 69-233 | OsMADS1 aa 95-257 | OsFDRMADS8 aa 94-230 | OsFDRMADS6 aa 100-246 | OsMADS8 aa 127-248

B2: OsPN30848 aa 365-476 (other)
chain: DCSLAKPPAADKKDDRVPLPSSNGAPLLPSYPPLGYGIMSVPGAYGAAPASTAQPMLYAPRAPPGAAMVPMMLPDGRLVYVVQQPGGQLPLASPPPQQAGHRSGSGGRHGGS
notes: prey, AD fusion
binds: OsS49462 aa 1-100
